Target: the molecule itself
Experiment: SEC; HiLoad 16/60 Superdex 200 prep grade column on an Äkta FPLC in buffer A (20 mM Hepes, 300 mM NaCl, 100 mM L-arginine, 1 mM TCEP, pH 7.0); molecular weight from a calibration curve of gel filtration standards; self-association, dimer or monomer

B1: recombinant BosR with a C-terminal Strep-II tag (WT rBosR-StrepII) (natural protein)
chain: MNDNIIDVHSALEKVGITNDPVLLKNLTSELGMKASHSRNRIILYIASNPKEYFTAKEVYNKLIKEIPSLSKATVYNTLNILKERNILKDIKTTDQKETKFYLSLASTIAHFKCNKCNQVHPIQLDDIKDILKDKLGENWETKSIEIIYSGHCNNCYKKDTHNNNNVPDENKEITL
notes: BosR (Fur family member), Borrelia burgdorferi strain 297, ORF bb0647; bosR amplified with primers from the ATG start codon to the last codon before the stop, fused directly to the Strep-II tag; theoretical MW of rBosR-StrepII 21.25 kDa; also called pOY436; source: E. coli M15 (pREP4), purified (Strep-Tactin resin, Superdex 200 FPLC)
stoichiometry N: 2
